Test results taken from patent US20190022241A1 (AbbVie / Abbott, published 2019).
Positions count from the first letter of the chain named.

T1: SEZ6 N1 (amino acids 1-70) on yeast (human, UniProt Q53EL9 20-89)
T1 construct: yeast display
T1 sequence: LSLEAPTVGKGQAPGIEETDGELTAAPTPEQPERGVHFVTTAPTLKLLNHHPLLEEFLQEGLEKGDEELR

B1: SC17.193 (antibody, V domains shown)
VH: QVTLKESGPGILQPSQTLSLTCSFSGFSLITYGIGVGWIRQPSGKGLEWLAHIWWNDNKYYNTALKSRLTISKDTSNNQVFLKIANVDTADTATYYCARMVYYDYDGGFAYWGQGTLVTVSA
VL: DLVLTQSPASLAVSLGQRATISCRASESVSTSGYSYMHWYQQKPGQPPKLLIYLASNLESGVPARFSGSGSGTDFTLNIHPVEEEDATTYYCQHSRELPYTFGGGTKLEIK
notes: murine mAb
B2: SC17.156 (antibody, V domains shown)
VH: QVTLKESGPGILQPSQTLSLTCSFSGFSLSTSGMGVSWIRKTSGKGLEWLAHIFWDDDKWYNPSLKSRLTISKATSSNQVFLILTSVDTADTATYYCATFYGLYFAYWGQGTTLTVSS
VL: DVVMTQSPLSLPVSLGDQASISCRSSQSIVHSNGNTYLEWYLQKPGQSPKLLIYKVSNRFSGVPDRFSGSGSGTDFTLKISRVEAEDLGVYYCFQGSHVPPTFGGGTKLEIK
notes: murine mAb
B3: SC17.93 (antibody, V domains shown)
VH: QVQLQQPGAELVKPGASVMLSCKASGYTFTSYWVHWVKQRPGQGLEWIGVINPRNGRNNYNEKFKTKATLTVDKSSSTAYMQLSSPTSEDSAVYYCAREDYDGGDYAMDYWGQGTSVTVSS
VL: DIVMSQSPSSLAVSVGEKVTMTCKSSQSLLYSSNQKNYLAWYQQKPGQSPKLLIYWASTRESGVPDRFIGSGSGTDFTLTISSVKAEDLAIYYCQQYYRYPLTFGAGTKLELK
notes: murine mAb
B4: SC17.121 (antibody, V domains shown)
VH: EVQLQQSGPELMKPGASVKMSCKASGYTFTDHNIHWVKQHQGKSLEWIGEINPNTGGTGYNQKFQGKATMTVDKSSSTAYMELRSLTSEDSAVYYCVRGLYFFDYWGQGTTLTVSS
VL: QIVLTQSPAIMSASPGEKVTMTCSASSSVSYMHWYQQKSGTSPKRWIYDTSKLASGVPARFSGSGSGTSYSLTISSMETEDAATYYCQQWSNTPPTFGSVTKLEIK
notes: murine mAb
B5: SC17.102 (antibody, V domains shown)
VH: EVQLQQSGPELMKPGASVKMSCKASGDTFTDYNIHWVKQNQGKSLEWIGEVNPNIGGIGYNQKFKGKATLTVDKSSSTAYMELRSLTSEDSAVYYCAMGRWYFDVWGAGTTVTVSS
VL: B4 VL with A59P, S64R, T79A, Q89H, N92S, T93N, S99A, V100G, I105M
notes: murine mAb
B6: SC17.191 (antibody, V domains shown)
VH: EVQLQQSGPELMKPGASVKMSCKASGYTFTDYNMHWVKQNQGKSLEWIGEINPNTGGTGYNQKFKDKATLTVDKSSSTAYMELRSLTSEDSAVYYCARIPSLRRYYFDYWGQGTTLTVSS
VL: B4 VL with S62T, T79A, N92S, T93S, S99A, V100G, I105L
notes: murine mAb
B7: SC17.114 (antibody, V domains shown)
VH: EVQLQQSGPEMVKPGASVKISCKASGYTFTDYYMHWVKQSHGKSLEWIGRVNTNNGGTSYDQKFEGKATLTVDKSSSTAYMELNSLTSEDSAVYYCVIPAWFAYWGQGTLVTVSA
VL: B2 VL with I29L, E39H, N58S, Y92F, F94S, G96S, S97T, P101F, G105S
notes: murine mAb
B8: SC17.151 (antibody, V domains shown)
VH: EVQLQQSGTVLARPGASVKMSCKASGYTFTSYWMHWVKQRPGQGLEWIGAIYPGKNDTTYNQKFKGKAKLTAVTSASTLYMELSSLTNEDSAVYYCTRSGKGYFAYWGQGTLVTVSA
VL: DIVLTQFPASLAVSLGQRATIPCRASESVDSYGNSFMHWFQQKPGQPPKLLIYRASNLESEIPARFSGSGSGTDFTLTINPVEADDVATYYCQQSHEDPYTFGGGTKMEIK
notes: murine mAb
B9: SC17.120 (antibody, V domains shown)
VH: EVQLEQSGTVLARPGASVKMSCKASGYTFTSYWMHWVKQRPGQGLEWIGAFYPGNSGTYYNQKFKDKAKLTAVTSASTAYMELSSLTNEDSAVYYCSRSGSGRFAYWGQGTLVTVSA
VL: B8 VL with F7S, P22S, F40Y, L50V, E61G, G72R, A84D, D85E, H96N, M108L
notes: murine mAb
B10: SC17.199 (antibody, V domains shown)
VH: EVQLQQSGTVLARPGASVRMSCKASGYTFTSYWMHWVKQRPGQGLEWIGAIYPGNSDTSYNHKFKGKAKLTAVTSASTAYMELSSLTNEDSAVYYCTRSGTGWFAYWGQGTLVTVS
VL: B8 VL with F7S, P22S, F40Y, L50P, E61G, G72R, H96N, M108L
notes: murine mAb
B11: SC17.56 (antibody, V domains shown)
VL: B3 VL with T22S, I69T, I91V, Y93F, R99N, L102Y, A106G, L112I
V domain: QIQLVQSGPELKKPGETVKISCKASGYTFTNYGMNWVKQAPGKGLKWMAWINTYTGEPTYADDFKGRFAFSLETSASTASLQIINLKNEDTATYFCARIGDSSPSDYWGQGTTLTV
notes: murine mAb
B12: SC17.81 (antibody, V domains shown)
VH: EVQLQQSGAELVKPGASVKLSCTASGFNINDTYYHWLKQRPEQGLEWIGRIDPANVNTKYDPKFQGKATLTADTSSNTAYLQLSSLTSEDTAVYYCGRGNAYWGQGTLVTVSA
VL: DIVMSQSPSSLTVSVGEKVTLSCKSSQSLLYSTNQKIYLAWYQQKPGQSPKLLIYWASTRESGVPDRFTGSGSGTDFTLAISNVKAEDLAVYYCQQYYSYPYTFGGGTKLEIK
notes: murine mAb
B13: SC17.9 (antibody, V domains shown)
VH: QVQLQQPGAEIVRPGASVKLSCKASGYTFTDYWMNWVKQRPGQGLEWIGAIDPSDSYTSYNPKFKGKATLTVDTSSSSAYMQLSSLTSEDSAVYFCARRGTPGKPLVYWGQGTLVTVSA
VL: DIVMSQSPSSLAVSVGEKVTMSCKSSQSLLYSSNQKNYLAWYQQKPGQSPKLLIYWASTRESGVPDRFTGSGSGTDFTLTISSVKAEDLAVYFCQQYYNYPYTFGGGTKLK
notes: murine mAb

Molecular target: T2, SEZ6 Sushi Domain 4 (amino acids 750-813) on yeast (human, UniProt Q53EL9 769-832)
T2 construct: yeast display
Experiment: yeast display, flow cytometry;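 also: antibody binding to individual SEZ6 domains displayed on yeast, measured by flow cytometry, antibody at 50 nM purified or hybridoma supernatant diluted 1:2, 90 min on ice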

**Q.** Does B1 bind?
**A.** binds

**Q.** Does B2 bind?
**A.** binds

**Q.** Does B3 bind?
**A.** binds

**Q.** Does B4 bind?
**A.** binds

**Q.** Does B5 bind?
**A.** binds

**Q.** Does B6 bind?
**A.** binds

Molecular target: T1, SEZ6 N1 (amino acids 1-70) on yeast
Experiment: yeast display, flow cytometry;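 also: antibody binding to individual SEZ6 domains displayed on yeast, measured by flow cytometry, antibody at 50 nM purified or hybridoma supernatant diluted 1:2, 90 min on ice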

**Q.** Does B7 bind?
**A.** binds

**Q.** Does B8 bind?
**A.** binds

**Q.** Does B9 bind?
**A.** binds

**Q.** Does B10 bind?
**A.** binds

**Q.** Does B11 bind?
**A.** binds

**Q.** Does B12 bind?
**A.** binds

**Q.** Does B13 bind?
**A.** binds
